# In US20120077731A1 (Ablynx, published 2012):
# T1: IL-11R/Fc (UniProt Q14626 23-370)
# T1 construct: not shown: Fc part, not described
# T1 sequence (looked up): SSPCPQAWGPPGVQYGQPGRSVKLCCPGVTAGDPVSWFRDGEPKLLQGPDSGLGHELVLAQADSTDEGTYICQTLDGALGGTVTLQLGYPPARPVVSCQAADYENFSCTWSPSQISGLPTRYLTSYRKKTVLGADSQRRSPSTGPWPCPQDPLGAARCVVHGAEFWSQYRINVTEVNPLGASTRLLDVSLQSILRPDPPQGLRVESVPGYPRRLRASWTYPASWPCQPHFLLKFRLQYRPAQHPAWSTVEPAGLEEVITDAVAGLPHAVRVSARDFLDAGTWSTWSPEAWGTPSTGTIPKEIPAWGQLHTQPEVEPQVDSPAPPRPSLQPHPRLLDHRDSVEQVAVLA
# T2: CNTF-R (UniProt P26992 23-346, limits assumed)
# T2 sequence (looked up): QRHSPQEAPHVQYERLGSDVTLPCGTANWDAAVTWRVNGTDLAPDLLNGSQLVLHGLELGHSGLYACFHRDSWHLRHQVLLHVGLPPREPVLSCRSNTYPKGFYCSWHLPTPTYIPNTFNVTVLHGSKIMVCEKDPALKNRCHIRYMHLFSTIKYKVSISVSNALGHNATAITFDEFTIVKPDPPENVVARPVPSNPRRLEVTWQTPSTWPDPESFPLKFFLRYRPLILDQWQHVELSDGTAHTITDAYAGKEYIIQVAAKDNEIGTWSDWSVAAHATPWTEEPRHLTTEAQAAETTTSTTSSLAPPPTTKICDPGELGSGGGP
# T3: OSM-R (UniProt Q99650 28-739, limits assumed)
# T3 sequence (looked up): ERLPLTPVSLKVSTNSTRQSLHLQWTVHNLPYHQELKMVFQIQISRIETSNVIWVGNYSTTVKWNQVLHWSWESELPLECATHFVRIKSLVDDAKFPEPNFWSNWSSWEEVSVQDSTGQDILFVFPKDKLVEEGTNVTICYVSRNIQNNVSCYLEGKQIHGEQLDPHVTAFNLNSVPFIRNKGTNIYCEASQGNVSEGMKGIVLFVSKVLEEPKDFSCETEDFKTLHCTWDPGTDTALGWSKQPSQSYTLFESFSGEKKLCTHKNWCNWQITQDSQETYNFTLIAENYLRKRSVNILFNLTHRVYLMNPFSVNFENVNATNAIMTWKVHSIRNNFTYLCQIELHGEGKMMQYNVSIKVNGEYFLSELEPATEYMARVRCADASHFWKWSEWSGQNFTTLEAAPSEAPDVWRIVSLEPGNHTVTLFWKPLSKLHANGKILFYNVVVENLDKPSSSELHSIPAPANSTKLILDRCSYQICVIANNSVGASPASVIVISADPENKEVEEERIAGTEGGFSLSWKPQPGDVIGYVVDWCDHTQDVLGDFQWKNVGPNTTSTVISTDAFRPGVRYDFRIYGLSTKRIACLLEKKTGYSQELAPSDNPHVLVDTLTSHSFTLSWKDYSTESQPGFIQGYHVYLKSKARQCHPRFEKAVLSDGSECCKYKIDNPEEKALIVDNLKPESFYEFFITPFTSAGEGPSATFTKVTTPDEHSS
# T4: LIF-R (UniProt P42702 45-833, limits assumed)
# T4 sequence (looked up): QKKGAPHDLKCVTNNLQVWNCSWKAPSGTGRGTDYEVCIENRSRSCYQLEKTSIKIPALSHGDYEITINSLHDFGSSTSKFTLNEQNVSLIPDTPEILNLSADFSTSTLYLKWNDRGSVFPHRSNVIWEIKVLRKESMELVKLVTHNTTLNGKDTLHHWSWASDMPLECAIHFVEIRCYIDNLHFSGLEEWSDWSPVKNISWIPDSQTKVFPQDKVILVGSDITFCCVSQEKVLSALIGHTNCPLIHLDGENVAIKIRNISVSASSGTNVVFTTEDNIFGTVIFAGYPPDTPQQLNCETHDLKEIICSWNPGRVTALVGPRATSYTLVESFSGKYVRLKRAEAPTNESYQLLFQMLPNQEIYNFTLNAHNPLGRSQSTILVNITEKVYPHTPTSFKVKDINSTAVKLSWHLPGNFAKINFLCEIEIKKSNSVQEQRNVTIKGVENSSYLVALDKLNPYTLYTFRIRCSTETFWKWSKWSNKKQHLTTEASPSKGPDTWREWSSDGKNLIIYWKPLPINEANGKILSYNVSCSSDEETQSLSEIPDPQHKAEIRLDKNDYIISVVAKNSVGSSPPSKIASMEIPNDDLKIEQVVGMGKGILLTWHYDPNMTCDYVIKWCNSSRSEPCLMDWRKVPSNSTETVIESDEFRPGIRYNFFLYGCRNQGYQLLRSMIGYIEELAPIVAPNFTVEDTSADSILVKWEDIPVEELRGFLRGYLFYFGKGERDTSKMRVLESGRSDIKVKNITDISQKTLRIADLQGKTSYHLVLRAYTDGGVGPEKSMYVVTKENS
# T5: Human soluble IL-6R (human, UniProt P08887 20-358)
# T5 construct: Soluble recombinant form; biotinylated in some assays; also called hIL-6R; human IL-6R
# T5 sequence (looked up): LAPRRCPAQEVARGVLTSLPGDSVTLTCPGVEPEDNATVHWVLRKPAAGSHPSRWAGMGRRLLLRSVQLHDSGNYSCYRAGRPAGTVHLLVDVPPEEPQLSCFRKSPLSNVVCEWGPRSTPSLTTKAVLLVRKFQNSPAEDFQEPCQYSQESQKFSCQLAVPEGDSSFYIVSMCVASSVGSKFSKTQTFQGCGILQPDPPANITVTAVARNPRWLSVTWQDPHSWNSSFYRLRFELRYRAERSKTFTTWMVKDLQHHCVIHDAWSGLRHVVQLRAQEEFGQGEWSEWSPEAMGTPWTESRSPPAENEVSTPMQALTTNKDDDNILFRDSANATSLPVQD
# B1: PMP20A11 (VHH)
# VHH: EVQLVESGGGLVQPGGSLRLSCAASGSVFKINVMAWYRQAPGKGRELVAGIISGGSTSYADSVKGRFTISRDNAKNTLYLQMNSLRPEDTAVYYCAFITTESDYDLGRRYWGQGTLVTVSS
# notes: also called IL6R20A11; IL6R300; not shown: c-myc and (His)6 tags
# Columns and labels:
# IL-11R/Fc = molecular target: T1, IL-11R/Fc; assay: competitive binding ELISA: IL6R20A11 (0.05 nM) pre-incubated with a series of the receptor; free IL6R20A11 captured on sIL-6R and detected via anti-His
# CNTF-R = molecular target: T2, CNTF-R; assay: as above
# OSM-R = molecular target: T3, OSM-R; assay: as above
# LIF-R = molecular target: T4, LIF-R; assay: as above
# Human soluble IL-6R = molecular target: T5, Human soluble IL-6R; assay: Biacore T100, IL-6R captured via mAb BN-12
binder,measurement,setting,value
B1,binding result,IL-11R/Fc,no binding (tested: 5 nM (log conc 0.7))
same,binding result,CNTF-R,no binding (tested: 5 nM (log conc 0.7))
same,binding result,OSM-R,no binding (tested: 5 nM (log conc 0.7))
same,binding result,LIF-R,no binding (tested: 5 nM (log conc 0.7))
same,kon,Human soluble IL-6R,1e+06 M⁻¹ s⁻¹
